Reference: paper PMC13100509, “A milestone in C4 carbon concentration mechanism evolution: structural remodeling of NADP-malic enzyme in Poaceae” (Molecular Biology and Evolution, 2026)
Residue numbers refer to the chain shown, from its start. Names and notes keep the numbering of the source. Values joined by “and” are separate entries in the source; they are usually repeats but may differ in a detail not shown here. Equal entries are not always repeated. Values belong to the molecule of their own block, whether it stands above or below them.

Key:
[1] = biological target: C4 + 15 variant of maize C4-NADP-ME (maize (Zea mays)) (UniProt P16243); experiment: native gel or EMSA; native PAGE (6% or 7%) of purified recombinant proteins, 100 V, 4 °C; Coomassie staining or in-gel NADP-ME activity assay; oligomeric state from mobility against native markers
[2] = biological target: maize Cyt2-NADP-ME, recombinant wild type (maize (Zea mays)); experiment: as above
[3] = biological target: nonC4I148F mutant of maize nonC4-NADP-ME (maize (Zea mays)); experiment: as above
[4] = biological target: nonC4N172D mutant of maize nonC4-NADP-ME (maize (Zea mays)); experiment: as above
[5] = biological target: nonC4R171T mutant of maize nonC4-NADP-ME (maize (Zea mays)); experiment: as above
[6] = biological target: nonC4R208G mutant of maize nonC4-NADP-ME (maize (Zea mays)); experiment: as above
[7] = biological target: nonC4Δ15 variant of maize nonC4-NADP-ME (maize (Zea mays)); experiment: as above
[8] = biological target: nonC4Δ15 with I148F (maize (Zea mays)); experiment: as above
[9] = biological target: nonC4Δ15 with N172D (maize (Zea mays)); experiment: as above
[10] = biological target: nonC4Δ15 with R171T (maize (Zea mays)); experiment: as above
[11] = biological target: nonC4Δ15 with R208G (maize (Zea mays)); experiment: as above
[12] = biological target: plastidic nonC4-NADP-ME from maize extracts (maize (endogenous in maize etiolated leaves and roots)); experiment: native gel or EMSA; native PAGE (7%) of maize extracts of etiolated leaves and roots; in-gel NADP-ME activity assay, active bands excised and identified by mass spectrometry; mobility compared with the recombinant proteins
purified protein = substrate: O=C(O)C[C@H](O)C(=O)O; experiment: purified protein; assay type: biochemical, Zea mays; conditions: pH 8.0, 25 °C, 0.5 mM NADP, 10 mM MgCl2
[13] = biological target: the molecule itself; experiment: native gel or EMSA; native PAGE (6% or 7%) of purified recombinant proteins, 100 V, 4 °C; Coomassie staining or in-gel NADP-ME activity assay; oligomeric state from mobility against native markers

Molecule: C4 + 15 variant of maize C4-NADP-ME (from UniProt P16243 63-636) (enzyme)
stoichiometry N [1]: 4

Molecule: nonC4I148F mutant of maize nonC4-NADP-ME (enzyme)
stoichiometry N [3]: 2

Molecule: nonC4Δ15 variant of maize nonC4-NADP-ME (enzyme)
stoichiometry N [7]: 2

Molecule: nonC4Δ15 with R208G (enzyme)
stoichiometry N [11]: 4

Molecule: plastidic nonC4-NADP-ME from maize extracts (enzyme)
stoichiometry N [12]: 2

B1: C4-NADP-ME (Zea mays) (protein)
chain: AMVSNAETETEKEQEEAAAASEELPVMPWATSVASGYTLLRDPHHNKGLAFTEEERDGHYLRGLLPPAVLSQELQIKKFMNTLRQYQTPLQRYIAMMNLQETDERLFYKLLIDNVVELLPFVYTPTVGEACQKYGSIFGRPQGLYVSLKDKGKVLEVLRNWPHRNIQVICVTDGERILGLGDLGCQGMGIPVGKLALYTALGGVDPSVCLPITIDVGTNNEFLLNDEFYIGLRQKRATGEEYDELIEEFMSAVKQFYGEKVLIQFEDFANHNAFDLLEKYSKSHLVFNDDIQGTASVVLAGLLAALKMVGGTLAEQTYLFLGAGEAGTGIAELIALEISKQTNAPIEECRKKVWLVDSKGLIVDSRKGSLQPFKKPWAHEHEPLKTLYDAVQSIKPTVLIGTSGVGRTFTKEIIEAMSSFNERPIIFSLSNPTSHSECTAEQAYTWSQGRSIFASGSPFAPVEYEGKTFVPGQSNNAYIFPGLGLGLVISGAVRVHEDMLLAASKALADQATQDNFEKGSIFPPFTSIRKISAHIAAAVAGKAYELGLATRLPPPSDLVKYAENCMYTPVYRNYR
notes: mature protein without transit peptide, E. coli, pET16b His-tag (Factor Xa site); homotetramer about 250 kDa
Km (purified protein): 170 ± 20 µM
kcat (purified protein): 67.5 ± 1.4 s⁻¹

B2: C4-NADP-ME (Zea mays; G200R) (protein)
chain: B1 chain with G139R
notes: as for B1
Km (purified protein): 2450 ± 450 µM
kcat (purified protein): 21.6 ± 0.8 s⁻¹

B3: C4N15GR variant of maize C4-NADP-ME (enzyme)
chain: AAGVVVEDHYGEDSASEELPVMPWATSVASGYTLLRDPHHNKGLAFTEEERDGHYLRGLLPPAVLSQELQIKKFMNTLRQYQTPLQRYIAMMNLQETDERLFYKLLIDNVVELLPFVYTPTVGEACQKYGSIFRRPQGLYVSLKDKGKVLEVLRNWPHRNIQVICVTDGERILGLGDLGCQGMGIPVGKLALYTALGGVDPSVCLPITIDVGTNNEKLLNDEFYIGLRQKRATGEEYDELIEEFMSAVKQFYGEKVLIQFEDFANHNAFDLLEKYSKSHLVFNDDIQGTASVVLAGLLAALKMVGGTLAEQTYLFLGAGEAGTGIAELIALEISKQTNAPIEECRKKVWLVDSKGLIVDSRKGSLQPFKKPWAHEHEPLKTLYDAVQSIKPTVLIGTSGVGRTFTKEIIEAMSSFNERPIIFSLSNPTSHSECTAEQAYTWSQGRSIFASGSPFAPVEYEGKTFVPGQSNNAYIFPGLGLGLVISGAVRVHEDMLLAASKALADQATQDNFEKGSIFPPFTSIRKISAHIAAAVAAKAYELGLATRLPPPSDLVKYAENCMYTPVYRNYR
stoichiometry N [13]: 2

B4: C4NnC4GR variant of maize C4-NADP-ME (enzyme)
chain: AAEMEQEEAEVAAAAAGVVVEDHYGEDSASEELPVMPWATSVASGYTLLRDPHHNKGLAFTEEERDGHYLRGLLPPAVLSQELQIKKFMNTLRQYQTPLQRYIAMMNLQETDERLFYKLLIDNVVELLPFVYTPTVGEACQKYGSIFRRPQGLYVSLKDKGKVLEVLRNWPHRNIQVICVTDGERILGLGDLGCQGMGIPVGKLALYTALGGVDPSVCLPITIDVGTNNEKLLNDEFYIGLRQKRATGEEYDELIEEFMSAVKQFYGEKVLIQFEDFANHNAFDLLEKYSKSHLVFNDDIQGTASVVLAGLLAALKMVGGTLAEQTYLFLGAGEAGTGIAELIALEISKQTNAPIEECRKKVWLVDSKGLIVDSRKGSLQPFKKPWAHEHEPLKTLYDAVQSIKPTVLIGTSGVGRTFTKEIIEAMSSFNERPIIFSLSNPTSHSECTAEQAYTWSQGRSIFASGSPFAPVEYEGKTFVPGQSNNAYIFPGLGLGLVISGAVRVHEDMLLAASKALADQATQDNFEKGSIFPPFTSIRKISAHIAAAVAAKAYELGLATRLPPPSDLVKYAENCMYTPVYRNYR
stoichiometry N [13]: 2

B5: C4T163R mutant of maize C4-NADP-ME (enzyme, maize (Zea mays), UniProt P16243 63-636, looked up)
chain: MVSNAETETEKEQEEAAAASEELPVMPWATSVASGYTLLRDPHHNKGLAFTEEERDGHYLRGLLPPAVLSQELQIKKFMNTLRQYQTPLQRYIAMMNLQERDERLFYKLLIDNVVELLPFVYTPTVGEACQKYGSIFGRPQGLYVSLKDKGKVLEVLRNWPHRNIQVICVTDGERILGLGDLGCQGMGIPVGKLALYTALGGVDPSVCLPITIDVGTNNEFLLNDEFYIGLRQKRATGEEYDELIEEFMSAVKQFYGEKVLIQFEDFANHNAFDLLEKYSKSHLVFNDDIQGTASVVLAGLLAALKMVGGTLAEQTYLFLGAGEAGTGIAELIALEISKQTNAPIEECRKKVWLVDSKGLIVDSRKGSLQPFKKPWAHEHEPLKTLYDAVQSIKPTVLIGTSGVGRTFTKEIIEAMSSFNERPIIFSLSNPTSHSECTAEQAYTWSQGRSIFASGSPFAPVEYEGKTFVPGQSNNAYIFPGLGLGLVISGAVRVHEDMLLAASKALADQATQDNFEKGSIFPPFTSIRKISAHIAAAVAGKAYELGLATRLPPPSDLVKYAENCMYTPVYRNYR
notes: C4-NADP-malic enzyme (ZmC4-NADP-ME), plastidic C4 isoform of maize; source: E. coli Rosetta2 (DE3) or ArcticExpress (DE3), purified (Ni-NTA)
stoichiometry N [13]: 2 and 4

B6: C4D164N mutant of maize C4-NADP-ME (enzyme, maize (Zea mays), UniProt P16243 63-636, looked up)
chain: B5 chain with R101T, D102N
notes: as for B5
stoichiometry N [13]: 2 and 4

B7: C4G200R mutant of maize C4-NADP-ME (enzyme, maize (Zea mays), UniProt P16243 63-636, looked up)
chain: B5 chain with R101T, G138R
notes: C4-NADP-malic enzyme (ZmC4-NADP-ME), plastidic C4 isoform of maize; also called C4-NADP-ME-G200R; source: E. coli Rosetta2 (DE3) or ArcticExpress (DE3), purified (Ni-NTA)
stoichiometry N [13]: 2

B8: C4Y632F mutant of maize C4-NADP-ME (enzyme, maize (Zea mays), UniProt P16243 63-636, looked up)
chain: B5 chain with R101T, Y570F
notes: as for B5
binding result [13]: binds

More lines, now with the values ahead:

stoichiometry N [2]: 4
Molecule: maize Cyt2-NADP-ME, recombinant wild type (enzyme)

stoichiometry N [4]: 4
Molecule: nonC4N172D mutant of maize nonC4-NADP-ME (enzyme)

stoichiometry N [5]: 2 and 4
Molecule: nonC4R171T mutant of maize nonC4-NADP-ME (enzyme)

stoichiometry N [6]: 4
Molecule: nonC4R208G mutant of maize nonC4-NADP-ME (enzyme)

stoichiometry N [8]: 4 and 2
Molecule: nonC4Δ15 with I148F (enzyme)

stoichiometry N [9]: 4
Molecule: nonC4Δ15 with N172D (enzyme)

stoichiometry N [10]: 4 and 2
Molecule: nonC4Δ15 with R171T (enzyme)
